Measured values taken from patent US20140193378A1 (UNIVERSITY OF MIAMI, published 2014).
Non-standard residues stand in square brackets, D forms with d. No end group written: not given here. *: point of attachment. Desaminotyrosyl = O=C(CCc1ccc(O)cc1)*; NMeY = CN[C@@H](Cc1ccc(O)cc1)C(=O)O; Agmatine = N=C(N)NCCCCN*; Nle = CCCC[C@H](N)C(=O)O; Orn = NCCC[C@H](N)C(=O)O; dAbu = CC[C@@H](N)C(=O)O; Abu = CC[C@H](N)C(=O)O; Aoc = NCCCCCCCC(=O)O; GABA = NCCCC(=O)O

T1: human GHRH receptor (human pituitary membrane homogenates) (human), Q02643
T1 chain: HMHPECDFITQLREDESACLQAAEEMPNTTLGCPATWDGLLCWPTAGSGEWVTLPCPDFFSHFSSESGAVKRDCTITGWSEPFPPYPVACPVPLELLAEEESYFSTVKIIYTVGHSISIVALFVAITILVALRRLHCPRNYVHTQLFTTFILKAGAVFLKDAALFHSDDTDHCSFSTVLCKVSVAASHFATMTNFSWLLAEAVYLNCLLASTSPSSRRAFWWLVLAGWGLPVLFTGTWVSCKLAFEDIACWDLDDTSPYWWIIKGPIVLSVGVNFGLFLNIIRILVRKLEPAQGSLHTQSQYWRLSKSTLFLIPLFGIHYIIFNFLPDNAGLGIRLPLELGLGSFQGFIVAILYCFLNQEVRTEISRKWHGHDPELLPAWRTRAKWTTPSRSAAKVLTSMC

T2: human GHRH receptor (human pituitary membrane homogenates) (human, UniProt Q02643 23-423)
T2 construct: whole, on cells; Native receptor in human pituitary membrane homogenates, not on intact cells; also called hGHRH receptor
T2 sequence (looked up): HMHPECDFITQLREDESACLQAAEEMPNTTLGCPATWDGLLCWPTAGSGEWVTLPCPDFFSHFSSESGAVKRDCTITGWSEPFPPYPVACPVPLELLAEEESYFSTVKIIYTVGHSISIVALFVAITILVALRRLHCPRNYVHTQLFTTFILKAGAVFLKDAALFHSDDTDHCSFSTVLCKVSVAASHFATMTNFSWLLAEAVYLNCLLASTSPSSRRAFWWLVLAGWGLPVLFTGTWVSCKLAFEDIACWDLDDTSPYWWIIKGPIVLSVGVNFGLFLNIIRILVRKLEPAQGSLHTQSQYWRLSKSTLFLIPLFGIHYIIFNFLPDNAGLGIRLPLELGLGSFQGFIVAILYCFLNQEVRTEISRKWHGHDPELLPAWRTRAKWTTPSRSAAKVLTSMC


Molecular target: T1, human GHRH receptor (human pituitary …)
Test: radioligand competition vs 125I-JV-1-42 (0.2 nM), human pituitary membranes

IC50 [nM] | Relative affinity (Binding potency) vs JI-38 [fold] | Binder
1.08 | 4.03 | [NMeY]ADAIFTQSYR[Orn]VL[Abu]QLSAR[Orn]LLQDI[Nle]SR-NHMe [P-27405 [N-Me-Tyr^1, Gln^8, Orn^12, Abu^15, Orn^21, Nle^27]hGHRH(1-29)NH-CH3]
2.99 | 1.45 | [NMeY]ADAIFTNSYR[Orn]VL[Abu]QLSAR[Orn]LLQDI[Nle]DR[Aoc]-NH2 (N-terminus assumed; SMILES CCCC[C@H](NC(=O)[C@@H](NC(=O)[C@H](CC(=O)O)NC(=O)[C@H](CCC(N)=O)NC(=O)[C@H](CC(C)C)NC(=O)[C@H](CC(C)C)NC(=O)[C@H](CCCN)NC(=O)[C@H](CCCNC(=N)N)NC(=O)[C@H](C)NC(=O)[C@H](CO)NC(=O)[C@H](CC(C)C)NC(=O)[C@H](CCC(N)=O)NC(=O)[C@H](CC)NC(=O)[C@H](CC(C)C)NC(=O)[C@@H](NC(=O)[C@H](CCCN)NC(=O)[C@H](CCCNC(=N)N)NC(=O)[C@H](Cc1ccc(O)cc1)NC(=O)[C@H](CO)NC(=O)[C@H](CC(N)=O)NC(=O)[C@@H](NC(=O)[C@H](Cc1ccccc1)NC(=O)[C@@H](NC(=O)[C@H](C)NC(=O)[C@H](CC(=O)O)NC(=O)[C@H](C)NC(=O)[C@H](Cc1ccc(O)cc1)NC)[C@@H](C)CC)[C@@H](C)O)C(C)C)[C@@H](C)CC)C(=O)N[C@@H](CC(=O)O)C(=O)N[C@@H](CCCNC(=N)N)C(=O)NCCCCCCCC(N)=O) [P-21301 [N-Me-Tyr^1, Orn^12, Abu^15, Orn^21, Nle^27, Asp^28, Amc^30]hGHRH(1-30)NH2]
3.02 | 1.44 | [NMeY]ADAIFTNSYR[Orn]VL[Abu]QLSAR[Orn]LLQDI[Nle]SR[GABA]-NHMe [P-27415 [N-Me-Tyr^1, Orn^12, Abu^15, Orn^21, Nle^27, Gab^30]hGHRH(1-30)NH-CH3]
1.18 | 3.67 | [NMeY][Abu]DAIFTNSYR[Orn]VL[Abu]QLSAR[Orn]LLQDI[Nle]SR[GABA]-NH2 (N-terminus assumed; SMILES CCCC[C@H](NC(=O)[C@@H](NC(=O)[C@H](CC(=O)O)NC(=O)[C@H](CCC(N)=O)NC(=O)[C@H](CC(C)C)NC(=O)[C@H](CC(C)C)NC(=O)[C@H](CCCN)NC(=O)[C@H](CCCNC(=N)N)NC(=O)[C@H](C)NC(=O)[C@H](CO)NC(=O)[C@H](CC(C)C)NC(=O)[C@H](CCC(N)=O)NC(=O)[C@H](CC)NC(=O)[C@H](CC(C)C)NC(=O)[C@@H](NC(=O)[C@H](CCCN)NC(=O)[C@H](CCCNC(=N)N)NC(=O)[C@H](Cc1ccc(O)cc1)NC(=O)[C@H](CO)NC(=O)[C@H](CC(N)=O)NC(=O)[C@@H](NC(=O)[C@H](Cc1ccccc1)NC(=O)[C@@H](NC(=O)[C@H](C)NC(=O)[C@H](CC(=O)O)NC(=O)[C@H](CC)NC(=O)[C@H](Cc1ccc(O)cc1)NC)[C@@H](C)CC)[C@@H](C)O)C(C)C)[C@@H](C)CC)C(=O)N[C@@H](CO)C(=O)N[C@@H](CCCNC(=N)N)C(=O)NCCCC(N)=O) [P-25503 [N-Me-Tyr^1, Abu^2, Orn^12, Abu^15, Orn^21, Nle^27, Gab^30]hGHRH(1-30)NH2]
 | 3.57 | [NMeY]ADAIFTQSYR[Orn]VL[Abu]QLSAR[Orn]LLQDI[Nle]SRQ[GABA]-NH2 (N-terminus assumed; SMILES CCCC[C@H](NC(=O)[C@@H](NC(=O)[C@H](CC(=O)O)NC(=O)[C@H](CCC(N)=O)NC(=O)[C@H](CC(C)C)NC(=O)[C@H](CC(C)C)NC(=O)[C@H](CCCN)NC(=O)[C@H](CCCNC(=N)N)NC(=O)[C@H](C)NC(=O)[C@H](CO)NC(=O)[C@H](CC(C)C)NC(=O)[C@H](CCC(N)=O)NC(=O)[C@H](CC)NC(=O)[C@H](CC(C)C)NC(=O)[C@@H](NC(=O)[C@H](CCCN)NC(=O)[C@H](CCCNC(=N)N)NC(=O)[C@H](Cc1ccc(O)cc1)NC(=O)[C@H](CO)NC(=O)[C@H](CCC(N)=O)NC(=O)[C@@H](NC(=O)[C@H](Cc1ccccc1)NC(=O)[C@@H](NC(=O)[C@H](C)NC(=O)[C@H](CC(=O)O)NC(=O)[C@H](C)NC(=O)[C@H](Cc1ccc(O)cc1)NC)[C@@H](C)CC)[C@@H](C)O)C(C)C)[C@@H](C)CC)C(=O)N[C@@H](CO)C(=O)N[C@@H](CCCNC(=N)N)C(=O)N[C@@H](CCC(N)=O)C(=O)NCCCC(N)=O) [P-29703 [N-Me-Tyr^1, Gln^8, Orn^12, Abu^15, Orn^21, Nle^27, Gln-Gab^30]hGHRH(1-30)NH2]

Molecular target: T2, human GHRH receptor (human pituitary …)
Test: as above
From the text: Normal human pituitaries were purchased from the National Hormone and Peptide Program (A. F. Parlow, Los Angeles, County Harbor-UCLA Medical Center, Torrance, Calif.).

Relative affinity (Binding potency) vs JI-38 [fold] | Binder
1.2 | [Desaminotyrosyl][dA]DAIFTNSYR[Orn]VL[Abu]QLSAR[Orn]LLQDI[Nle]DR[Aoc]-NH2 (SMILES CCCC[C@H](NC(=O)[C@@H](NC(=O)[C@H](CC(=O)O)NC(=O)[C@H](CCC(N)=O)NC(=O)[C@H](CC(C)C)NC(=O)[C@H](CC(C)C)NC(=O)[C@H](CCCN)NC(=O)[C@H](CCCNC(=N)N)NC(=O)[C@H](C)NC(=O)[C@H](CO)NC(=O)[C@H](CC(C)C)NC(=O)[C@H](CCC(N)=O)NC(=O)[C@H](CC)NC(=O)[C@H](CC(C)C)NC(=O)[C@@H](NC(=O)[C@H](CCCN)NC(=O)[C@H](CCCNC(=N)N)NC(=O)[C@H](Cc1ccc(O)cc1)NC(=O)[C@H](CO)NC(=O)[C@H](CC(N)=O)NC(=O)[C@@H](NC(=O)[C@H](Cc1ccccc1)NC(=O)[C@@H](NC(=O)[C@H](C)NC(=O)[C@H](CC(=O)O)NC(=O)[C@@H](C)NC(=O)CCc1ccc(O)cc1)[C@@H](C)CC)[C@@H](C)O)C(C)C)[C@@H](C)CC)C(=O)N[C@@H](CC(=O)O)C(=O)N[C@@H](CCCNC(=N)N)C(=O)NCCCCCCCC(N)=O, also called Peptide 21300) [P-21300 [Dat^1, D-Ala^2, Orn^12, Abu^15, Orn^21, Nle^27, Asp^28, Amc^30]hGHRH(1-30)NH2]
1.26 | Ac-[NMeY][dA]DAIFTQSYR[Orn]VL[Abu]QLSAR[Orn]LLQDI[Nle]D[Agmatine] (SMILES CCCC[C@H](NC(=O)[C@@H](NC(=O)[C@H](CC(=O)O)NC(=O)[C@H](CCC(N)=O)NC(=O)[C@H](CC(C)C)NC(=O)[C@H](CC(C)C)NC(=O)[C@H](CCCN)NC(=O)[C@H](CCCNC(=N)N)NC(=O)[C@H](C)NC(=O)[C@H](CO)NC(=O)[C@H](CC(C)C)NC(=O)[C@H](CCC(N)=O)NC(=O)[C@H](CC)NC(=O)[C@H](CC(C)C)NC(=O)[C@@H](NC(=O)[C@H](CCCN)NC(=O)[C@H](CCCNC(=N)N)NC(=O)[C@H](Cc1ccc(O)cc1)NC(=O)[C@H](CO)NC(=O)[C@H](CCC(N)=O)NC(=O)[C@@H](NC(=O)[C@H](Cc1ccccc1)NC(=O)[C@@H](NC(=O)[C@H](C)NC(=O)[C@H](CC(=O)O)NC(=O)[C@@H](C)NC(=O)[C@H](Cc1ccc(O)cc1)N(C)C(C)=O)[C@@H](C)CC)[C@@H](C)O)C(C)C)[C@@H](C)CC)C(=O)N[C@@H](CC(=O)O)C(=O)NCCCCNC(=N)N, also called Peptide 20351)
5.3 | [NMeY][dA]DAIFTQSYR[Orn]VL[Abu]QLSAR[Orn]LLQDI[Nle]D[Agmatine] (also called Peptide 20361) [P-20361 [N-Me-Tyr^1, D-Ala^2, Gln^8, Orn^12, Abu^15, Orn^21, Nle^27, Asp^28, Agm^29]hGHRH(1-29)NH2]
3.02 | [Desaminotyrosyl][dAbu]DAIFTNSYR[Orn]VL[Abu]QLSAR[Orn]LLQDI[Nle]SR[GABA]-NH2 (SMILES CCCC[C@H](NC(=O)[C@@H](NC(=O)[C@H](CC(=O)O)NC(=O)[C@H](CCC(N)=O)NC(=O)[C@H](CC(C)C)NC(=O)[C@H](CC(C)C)NC(=O)[C@H](CCCN)NC(=O)[C@H](CCCNC(=N)N)NC(=O)[C@H](C)NC(=O)[C@H](CO)NC(=O)[C@H](CC(C)C)NC(=O)[C@H](CCC(N)=O)NC(=O)[C@H](CC)NC(=O)[C@H](CC(C)C)NC(=O)[C@@H](NC(=O)[C@H](CCCN)NC(=O)[C@H](CCCNC(=N)N)NC(=O)[C@H](Cc1ccc(O)cc1)NC(=O)[C@H](CO)NC(=O)[C@H](CC(N)=O)NC(=O)[C@@H](NC(=O)[C@H](Cc1ccccc1)NC(=O)[C@@H](NC(=O)[C@H](C)NC(=O)[C@H](CC(=O)O)NC(=O)[C@@H](CC)NC(=O)CCc1ccc(O)cc1)[C@@H](C)CC)[C@@H](C)O)C(C)C)[C@@H](C)CC)C(=O)N[C@@H](CO)C(=O)N[C@@H](CCCNC(=N)N)C(=O)NCCCC(N)=O, also called Peptide 25504) [P-25504 [Dat^1, D-Abu^2, Orn^12, Abu^15, Orn^21, Nle^27, Gab^30]hGHRH(1-30)NH2]
2.32 | [NMeY][dA]DAIFTNSYR[Orn]VL[Abu]QLSAR[Orn]LLQDI[Nle]DR[Aoc]-NH2 (N-terminus assumed; SMILES CCCC[C@H](NC(=O)[C@@H](NC(=O)[C@H](CC(=O)O)NC(=O)[C@H](CCC(N)=O)NC(=O)[C@H](CC(C)C)NC(=O)[C@H](CC(C)C)NC(=O)[C@H](CCCN)NC(=O)[C@H](CCCNC(=N)N)NC(=O)[C@H](C)NC(=O)[C@H](CO)NC(=O)[C@H](CC(C)C)NC(=O)[C@H](CCC(N)=O)NC(=O)[C@H](CC)NC(=O)[C@H](CC(C)C)NC(=O)[C@@H](NC(=O)[C@H](CCCN)NC(=O)[C@H](CCCNC(=N)N)NC(=O)[C@H](Cc1ccc(O)cc1)NC(=O)[C@H](CO)NC(=O)[C@H](CC(N)=O)NC(=O)[C@@H](NC(=O)[C@H](Cc1ccccc1)NC(=O)[C@@H](NC(=O)[C@H](C)NC(=O)[C@H](CC(=O)O)NC(=O)[C@@H](C)NC(=O)[C@H](Cc1ccc(O)cc1)NC)[C@@H](C)CC)[C@@H](C)O)C(C)C)[C@@H](C)CC)C(=O)N[C@@H](CC(=O)O)C(=O)N[C@@H](CCCNC(=N)N)C(=O)NCCCCCCCC(N)=O, also called Peptide 21303) [P-21303 [N-Me-Tyr^1, D-Ala^2, Orn^12, Abu^15, Orn^21, Nle^27, Asp^28, Amc^30]hGHRH(1-30)NH2]
